Tests used:
Assay in all cases: spectrophotometric hydrolysis, initial rates, Hanes-Woolf
Assay type in all cases: biochemical, Yersinia mollaretii
Conditions in all cases: 50 mM MES pH 6.0, 30°C
[1] = system: C[C@@H](O)[C@H]1C(=O)N2C(C(=O)[O-])=C(SC3Cn4cnc[n+]4C3)[C@H](C)[C@H]12
[2] = system: C[C@@H](O)[C@H]1C(=O)N2C(C(=O)O)=C(S[C@@H]3CN[C@H](C(=O)Nc4cccc(C(=O)O)c4)C3)[C@H](C)[C@H]12
[3] = system: C[C@@H](O)[C@H]1C(=O)N2C(C(=O)O)=C(S[C@@H]3CN[C@H](C(=O)N(C)C)C3)[C@H](C)[C@H]12
[4] = system: C[C@@H](O)[C@H]1C(=O)N2C(C(=O)O)=C(S[C@@H]3CN[C@H](CNS(N)(=O)=O)C3)[C@H](C)[C@H]12
[5] = system: C[C@@H](O)[C@H]1C(=O)N2C(C(=O)O)=C(SCCN=CN)C[C@H]12

Substance: YEM-1 (Yersinia mollaretii ATCC 43969)
- kcat [1]: >16 s⁻¹
- kcat [2]: >400 s⁻¹
- kcat [3]: >400 s⁻¹
- kcat [4]: >100 s⁻¹
- Km [5]: 160 µM
- kcat [5]: 480 s⁻¹

— doi:10.1101/2020.01.29.926220v1
